Source: patent US20240239894A1, “THERAPEUTIC BINDING MOLECULES” (MedImmune Limited, priority 2020, published 2024)

Assays:
[1] = test system: non-transfected HEK293 cells; test: In vitro cytotoxicity; type: cell-based
Description: The clone E02-GL was conjugated to the cytotoxin SG3249 (providing E02-GL-SG3249), and tested for the ability to target and kill both cynomolgus B7-H4 transfected and non-transfected B7-H4 cells. For convenience, the antibody tested in this example comprised the Maia heavy chain backbone (e.g. having a cysteine insertion providing an additional site to which SG3249 can conjugate, see SEQ ID NO: 48) was used. No loss of efficacy occurs where other heavy chain backbones (e.g. lacking such cysteine insertion, for example see SEQ ID NO: 52) is used. The antibody R347 conjugated to SG3249 was used as a control.

[2] = test system: B7-H4 heterogeneous HT29 tumours (1:1 expressing and non-expressing); test: Bystander killing in vivo
Description: B7-H4 heterogeneous tumours were generated by co-implantation of B7-H4 expressing HT29 cell lines with non-expressing HT29 cells (1:1 ratio). […] This is highly advantageous, as the inventors have found B7-H4 to be heterogeneously expressed within tumours.

HCC1569 cells = test: Western blot DNA damage response; type: cell-based; details: 100 ng/ml ADC, 100 pM SG3199
Procedure: Following treatment of HCC1569 cells with E02-GL-SG3249, and SG3199 as a control (at 100 ng/ml and 100 pM, respectively), lysate was prepared and subjected to western blot analysis with antibodies to pATR, ATR, pChk1, Chk1, pRPA32, RPA32, pATM, ATM (all involved in ATR signalling), pChk2, ChK2, pKAP1, KAP1 (all involved in ATM signalling), pDNA-PK, DNA-PK, pH2AX, H2AX, pBRCA1, BRCA1 (all involved in DNA double strand break), pFANCD2 and GAPDH (load control). Negative controls were PBS treatment alone.

[3] = test system: HT29 cell line expressing human B7-H4, SKBR3, HCC1569; test: Cytotoxicity assay versus 1D11 ADC; type: cell-based; details: six days
Procedure: Cell lines were detached from tissue culture flasks by accutase (Gibco, Paisley, UK), pelleted by centrifugation, and resuspended in growth media (McCoy's 5A,10% FBS, 400 μg/mL G418 for HT29-hB7H4 clone 44, McCoy's 5A, 10% FBS for SKBR3 and RPMI-1640, 10% FBS for HCC1569). Viable cells were counted by trypan blue exclusion using a haemocytometer. Cell densities were adjusted to 2.7×10^4 cells/mL in growth media. 75 μL/well of the cell suspension (2×10^3 cells) was added to 96-well white walled clear bottom tissue culture treated plates and cultured overnight in a humidified tissue culture incubator at 37° C. in 5% CO2. […]
Cells were cultured in the presence of ADCs or DPBS (mock-treated control cells) for six days. Cell viability was assessed using CellTiter-Glo® assay: 100 μL of CellTiter-Glo® (Promega, Southampton, UK) was added to each well. […] Luminescence was measured using an Envision multilabel plate reader (Perkin Elmer, Seer Green, UK). The potency for test article antibodies (e.g. 1D11-MMAE or E02-GL-MMAE or E02-GL-SG3249) was determined by generating half-maximal inhibitory concentration (IC50) values using a nonlinear regression model [log agonist vs. response—variable slope (three parameters)] in GraphPad Prism, version 7 (GraphPad Software, La Jolla, CA) and presented as percent cell viability relative to Mock-treated control cells — […]

HEK293 JI parental = test: E02-GL MESF on cell line; type: cell-based; details: B7-H4 negative
HT29 hB7H4 clone 26 = test: E02-GL MESF on cell line; type: cell-based, human
HEK 293 JI hB7H4 pool = test: E02-GL MESF on cell line; type: cell-based; details: has some negative cells in pool
[4] = test system: HT29-huB7-H4 Clone 26 cells; test: Confocal colocalization with LAMP1 and EEA1; type: cell-based, human; details: 24 hours, 5 μg/mL
Description: Confocal microscopy was used to determine intracellular trafficking of E02-INT by measuring co-localization with the early endosomal marker, Early Endosome Antigen 1 (EEA1) and the lysosomal marker, lysosomal-associated membrane protein 1 (LAMP1).

[5] = test system: B7-H4-negative non-transduced HT29; test: Flow cytometry binding; type: cell-based, human
OVCAR4 = test: E02-GL MESF on cell line; type: cell-based, human
[6] = test system: B7-H4 expressing versus WT HT29, CT26 and 4T1 tumours; test: In vivo imaging of 800CW labelled antibody; design: species or system mice; details: 800CW label; HT29 days 3, 7, 14; CT26 days 3 and 7; 4T1 day 7
Description: Antibody clones (e.g. E02_GL) were labelled with 800CW (LI-COR Biosciences). 800 CW labelled R347 was used in control experiments.
B7-H4 expressing CT26/4TI/HT29 cancer cells were grafted (e.g. inoculated subcutaneously) to the left flank […] nude mice (Charles River Laboratories, Wilmington, MA), and non-B7-H4 expressing CT26/4TI/HT29 cancer cells were grafted to the right flank to provide an internal control. Mice were kept for a week to develop tumours, 800CW-labelled E02_GL was injected. 800CW-labelled R347 was injected into control mice. […]
In vivo imaging studies were performed as outlined under Materials and Methods (above), namely with 800CW labelled antibody (E02_GL). “E02-GL” antibody has the CDR/VH sequences (e.g. corresponds to) of ZY0EQD-E02 (“GL” means the antibody has been germlined).

HT29 = test: E02-GL MESF on cell line; type: cell-based, human; details: HT29, B7-H4 negative
HCC1954 = test: E02-GL MESF on cell line; type: cell-based

B1: E02-GL-SG3249: clone E02-GL (Maia heavy chain backbone) conjugated to the PBD cytotoxin SG3249 (conjugate)
heavy: QVQLQQWGAGLLKPSETLSLACTVYGGSFSGYYWNWIRQPPGKGLEWIGEINHSGSTSYNPSLKSRVTISVDTSKNQFSLKLSSVTAADTAVYYCARVLYNWNVDSWGQGTLVTVSSASTKGPSVFPLAPSSKSTSGGTAALGCLVKDYFPEPVTVSWNSGALTSGVHTFPAVLQSSGLYSLSSVVTVPSSSLGTQTYICNVNHKPSNTKVDKRVEPKSCDKTHTCPPCPAPELLGGPSCVFLFPPKPKDTLMISRTPEVTCVVVDVSHEDPEVKFNWYVDGVEVHNAKTKPREEQYNSTYRVVSVLTVLHQDWLNGKEYKCKVSNKALPAPIEKTISKAKGQPREPQVYTLPPSREEMTKNQVSLTCLVKGFYPSDIAVEWESNGQPENNYKTTPPVLDSDGSFFLYSKLTVDKSRWQQGNVFSCSVMHEALHNHYTQKSLSLSPGK
light: DIQMTQSPSSLSASVGDRVTITCRASQDIRNDVGWYQQKPGKAPKRLIYAASRLQSGVPSRFSGSGSGTEFTLTISSLQPEDFATYYCLQHNSYPRTFGQGTKVEIKRTVAAPSVFIFPPSDEQLKSGTASVVCLLNNFYPREAKVQWKVDNALQSGNSQESVTEQDSKDSTYSLSSTLTLSKADYEKHKVYACEVTHQGLSSPVTKSFNRGEC
- cell killing [1]: No significant killing
- growth suppression of heterogeneous xenografts [2]: pronounced
- DNA damage response signalling (ATR, ATM, double strand break markers) (HCC1569 cells): leads to double strand DNA breaks
- cytotoxicity potency compared with 1D11 conjugated to (A114C-) MMAE [3]: superior cytotoxicity potency

B2: E02-GL: germlined ZY0EQD-E02, VH SEQ ID NO: 45, VL SEQ ID NO: 34; antibody intermediate of E02-GL-SG3932 (antibody, V domains shown)
VH: QVQLQQWGAGLLKPSETLSLACTVYGGSFSGYYWNWIRQPPGKGLEWIGEINHSGSTSYNPSLKSRVTISVDTSKNQFSLKLSSVTAADTAVYYCARVLYNWNVDSWGQGTLVTVSS
VL: DIQMTQSPSSLSASVGDRVTITCRASQDIRNDVGWYQQKPGKAPKRLIYAASRLQSGVPSRFSGSGSGTEFTLTISSLQPEDFATYYCLQHNSYPRTFGQGTKVEIK
- E02-GL MESF (HEK293 JI parental): 3,266 MESF
- E02-GL MESF (HT29 hB7H4 clone 26): 429,398 MESF
- E02-GL MESF (HEK 293 JI hB7H4 pool): 2,481,266 MESF
- intracellular trafficking after internalization [4]: trafficked to the lysosomal compartment
- cellular binding [5]: did not bind
- E02-GL MESF (OVCAR4): 261,997 MESF
- localization to the B7-H4 expressing tumour compared to the WT tumour [6]: Preferential localization
- E02-GL MESF (HT29): 2,101 MESF
- E02-GL MESF (HCC1954): 47,173 MESF
